Reference: patent US7097986 (dated 2006)

Molecular target: T1, VEGFR-1/Ig (human, UniProt P17948)
T1 chain: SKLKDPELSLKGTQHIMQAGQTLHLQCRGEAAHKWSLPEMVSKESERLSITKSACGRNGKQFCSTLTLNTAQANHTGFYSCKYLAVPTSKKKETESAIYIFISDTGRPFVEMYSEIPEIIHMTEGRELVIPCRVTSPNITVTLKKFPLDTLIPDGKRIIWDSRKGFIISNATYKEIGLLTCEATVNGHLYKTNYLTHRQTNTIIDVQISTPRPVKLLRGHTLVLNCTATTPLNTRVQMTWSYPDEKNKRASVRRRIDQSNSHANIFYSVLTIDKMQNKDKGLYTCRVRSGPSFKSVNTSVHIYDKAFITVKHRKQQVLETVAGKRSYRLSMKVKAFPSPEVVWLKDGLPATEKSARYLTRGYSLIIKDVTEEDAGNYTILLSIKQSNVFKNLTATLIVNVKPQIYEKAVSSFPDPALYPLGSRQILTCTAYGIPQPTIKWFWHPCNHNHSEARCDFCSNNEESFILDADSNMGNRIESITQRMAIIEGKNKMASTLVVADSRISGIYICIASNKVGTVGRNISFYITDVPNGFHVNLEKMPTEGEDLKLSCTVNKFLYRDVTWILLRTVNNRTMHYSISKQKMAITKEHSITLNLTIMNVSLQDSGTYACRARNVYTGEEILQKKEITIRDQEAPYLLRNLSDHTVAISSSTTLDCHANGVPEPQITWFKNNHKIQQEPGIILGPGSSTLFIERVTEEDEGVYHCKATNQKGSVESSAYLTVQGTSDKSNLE
Experiment: ELISA

B1: VEGF-DΔNΔC (protein)
chain: FYDIETLKVIDEEWQRTQCSPRETCVEVASELGKSTNTFFKPPCVNVFRCGGCCNEESLICMNTSTSYISKQLFEISVPLTSVPELVPVKVANHTGCKCLPTAPRHPYS
binding result: no binding
